Measurements published in patent US20080027001A1, “NOGO RECEPTOR FUNCTIONAL MOTIFS, PEPTIDE MIMETICS, AND MUTATED FUNCTIONAL MOTIFS RELATED THERETO, AND METHODS OF USING THE SAME” (priority 2006, published 2008).
Numbering of substitutions follows the chain as printed. In names and notes the source's numbering stands.

B1: EM7: human NgR1 point mutant K277D/R279D (protein)
chain: CPGACVCYNEPKVTTSCPQQGLQAVPVGIPAASQRIFLHGNRISHVPAASFRACRNLTILWLHSNVLARIDAAAFTGLALLEQLDLSDNAQLRSVDPATFHGLGRLHTLHLDRCGLQELGPGLFRGLAALQYLYLQDNALQALPDDTFRDLGNLTHLFLHGNRISSVPERAFRGLHSLDRLLLHQNRVAHVHPHAFRDLGRLMTLYLFANNLSALPTEALAPLRALQYLRLNDNPWVCDCRARPLWAWLQDFDGSSSEVPCSLPQRLAGRDLKRLAANDLQGCAVATGPYHPIWTGRATDEEPLGLPKCCQPDAADKASVLEPGRPASAGNALKGRVPPGDSPPGNGSGPRHINDSPFGTLPGSAEPPLTAVRPEGSEPPGFPTSGPRRRPGCSRKNRTRSHCRLGQAGSGGGGTGDSEGS
B2: EM8: human NgR1 point mutant K277A, R279A (protein)
chain: B1 chain with D251A, D253A
B3: EM11: human NgR1 point mutant R279A (protein)
chain: B1 chain with D251K, D253A

molecular target: T1, MAG-AP (Homo sapiens, UniProt P20916); test: Cell-surface NgR binding assay, MAG-AP; conditions: mutant NgR1 in COS-7 cells; MAG-AP 10 μg/ml (FIG. 7B)
T1 construct: human MAG; NM_002361; amino acids 1-516; made in house; NgR1 transiently transfected into COS-7 cells
T1 sequence (P20916 20-516): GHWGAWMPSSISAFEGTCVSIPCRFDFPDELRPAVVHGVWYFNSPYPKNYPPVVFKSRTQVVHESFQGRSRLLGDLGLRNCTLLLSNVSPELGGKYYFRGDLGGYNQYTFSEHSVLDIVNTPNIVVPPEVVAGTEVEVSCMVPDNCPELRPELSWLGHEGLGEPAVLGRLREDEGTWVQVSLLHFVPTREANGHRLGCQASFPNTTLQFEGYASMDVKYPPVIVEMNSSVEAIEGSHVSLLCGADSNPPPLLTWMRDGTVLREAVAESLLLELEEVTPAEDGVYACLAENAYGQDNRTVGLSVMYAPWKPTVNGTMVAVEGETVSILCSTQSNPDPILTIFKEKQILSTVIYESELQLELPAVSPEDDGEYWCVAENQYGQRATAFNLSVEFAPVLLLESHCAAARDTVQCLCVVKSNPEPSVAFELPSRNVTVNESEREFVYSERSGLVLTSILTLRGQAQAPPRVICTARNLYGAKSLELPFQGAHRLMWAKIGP
Description: COS-7 cells were cotransfected with either wild type or mutant NgR1 constructs along with a CMV-beta-galactosidase plasmid (pCMVb, BD Biosciences, San Jose, Calif.) as a transfection control. Transfection was performed in 6-well plates using Lipofectamine 2000 (Invitrogen, Carlsbad, Calif.) following the manufacturer's protocol. The next day, cells were trypsinized and seeded at 30,000 cells per well in duplicate polylysine-coated 96-well plates (BD Biosciences); one plate was used in the binding assay, and the other was used to correct for transfection efficiency by measuring beta-galactosidase activity (described below). The remaining cells were separately plated and assayed for surface expression of the NgR1 proteins by immunocytochemistry (Example 1.9) and for total NgR1 protein levels by Western blot analysis (Example 1.8). […] Binding of AP-tagged ligands was measured using the Great EscAPe SEAP Kit (BD Biosciences) following the manufacturer's recommended protocol. […] Sixty microliters of diluted CSPD® substrate (Applied Biosystems, Foster City, Calif.) was then added per well, incubated for 10 minutes at room temperature, and then read on an LMAXII luminometer (Molecular Devices). […] Beta-galactosidase activity was measured using the luminescent beta-gal detection kit II (BD Biosciences) following the manufacturer's recommended protocol. […]
Separate statistical analysis was performed for MAG-AP and Nogo-66-AP binding; a linear mixed model was fitted to the data using the receptors as the fixed effects and the experiments, replicates within each experiment, and receptor×experiment interactions as the random effects. […] Pairwise comparisons were performed between receptors in the framework of the linear mixed model, and raw p-values and Tukey-Kramer multiplicity-adjusted p-values were calculated. The corresponding 95% confidence intervals were also calculated.
(SEQ ID NO:51). […] Nogo-66-AP(C47V) concentration was determined by measuring alkaline phosphatase activity and by Western blot analysis for alkaline phosphatase. […]

Point of comparison: B2, “reduction in binding of soluble MAG (MAG-AP) relative to wild type NgR1” value 58%. Against it:
- B1 — lower, 57%
- B3 — lower, 36%
